Data reported in patent US20060222644A1 (Biogen, published 2006).

What was measured:
[1] = biological target: T1, lymphotoxin beta receptor (LT-β-R) (human, UniProt P36941 31-435); test: FACS staining of HT-29 cells with purified antibody; reference huCBE11
T1 construct: whole, on cells; also called LT-β receptor

[2] = biological target: T1, lymphotoxin beta receptor (LT-β-R); test: FACS of Protein A-purified antibodies on HT29 cells
Procedure: Co-transfections of 293-EBNA cells with chBHA10 and huBHA10 Versions 1-4 were scaled up and conditioned medium was harvested. Antibody was purified on Protein A-Sepharose and purified mAbs were assayed for activity. Binding to the lymphotoxin-beta receptor was determined by FACS analysis of protein A-purified antibodies on the cell-line HT29.
HT29 cells were harvested by treatment with PBS containing 5 mM EDTA for 30 minutes followed by vigorous agitation. Cells were distributed to round-bottom 96-well plates at 2.5×10⁵ cells/well. Supernatants from 293-E cells transfected with BHA10 variants were added to the wells at the indicated dilutions in a total volume of 100 μl and incubated at 4° C. for 1 hour. The cells were washed twice with FACS buffer (PBS containing 5% FBS) and incubated with a 1:100 dilution of PE-conjugated anti-human heavy and light chain antibody (Jackson ImmunoResearch Laboratories) for 1 hour. The cells were then washed 3 times with FACS buffer and resuspended in 100 μl of PBS containing 1.0% paraformaldehyde. Samples were then transferred to the FACS facility for analysis. Protein A-purified antibodies from 293-E cells transfected with BHA10 variants were assayed at the indicated concentrations as shown in FIG. 2. The Protein A-purified CBE11 and 5C8 (anti-CD40L antibody) research standards were used as positive and negative controls, respectively. Rank ordering of binding activity was chBHA10=Version 4 huBHA10=Version 2 huBHA10>Version 3 huBHA10.

T1 sequence (P36941 31-435): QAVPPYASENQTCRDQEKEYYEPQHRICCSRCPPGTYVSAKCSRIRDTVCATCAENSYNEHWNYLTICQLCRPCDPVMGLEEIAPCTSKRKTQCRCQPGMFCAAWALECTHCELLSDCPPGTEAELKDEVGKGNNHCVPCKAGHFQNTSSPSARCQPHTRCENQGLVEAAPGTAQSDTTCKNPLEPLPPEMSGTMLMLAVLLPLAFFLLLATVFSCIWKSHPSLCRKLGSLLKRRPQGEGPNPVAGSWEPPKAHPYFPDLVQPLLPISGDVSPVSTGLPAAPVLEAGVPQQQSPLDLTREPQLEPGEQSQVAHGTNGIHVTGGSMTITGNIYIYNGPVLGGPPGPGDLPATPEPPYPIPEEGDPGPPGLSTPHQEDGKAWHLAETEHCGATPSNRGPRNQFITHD

Binder	apparent Kd, fold relative to huCBE11 [1]	binding result [2]
chimeric BHA10 (chBHA10) (antibody, human IgG1, V domains shown, expressed in 293-EBNA cells; also called chBHA 0) VH: QVQLQQSGPELVKPGASVRISCKASGYTFTTYYLHWVKQRPGQGLEWIGWIYPGNVHAQYNEKFKGKATLTADKSSSTAYMQLSSLTSEDSAIYFCARSWEGFPYWGQGTTVTVSS VL: DIVMTQSQKFMSTSVGDRVSVTCKASQNVGINVAWYQQKPGQSPKSLISSASYRYSGVPDRFTGSGSGTDFTLTITNVQSEDLAEYFCQQYDTYPFTFGSGTKLEIK	~2 fold	–
Version 4 huBHA10 (antibody, human IgG1, kappa, V domains shown, Heavy chain #3 and Light chain #2; human IgG1/kappa; the 293-EBNA material from pKJS046 may still carry it; also called huBHA10 Version 4; humanized BHA10 antibody version 4) VH: QVQLVQSGAEVKKPGSSVKVSCKASGYTFTTYYLHWVRQAPGQGLEWMGWIYPGNVHAQYNEKFKGRVTITADKSTSTAYMELSSLRSEDTAVYYCARSWEGFPYWGQGTTVTVSS VL: DIQMTQSPSSLSASVGDRVTITCKASQNVGINVAWYQQKPGKAPKSLISSASYRYSGVPSRFSGSGSGTDFTLTISSLQPEDFATYFCQQYDTYPFTFGQGTKVEIKR	–	binds
Version 3 huBHA10 (antibody, human IgG1, V domains shown, the 293-EBNA material may still carry it; also called huBHA10 Version 3) VH: QVQLVQSGAEVKKPGSSVKVSCKASGYTFTTYYLHWVRQAPGQGLEWMGWIYPGNVHAQYNEKFKGRVTITADKSTSTAYMELSSLRSEDTAVYYCARSWEGFPYWGQGTTVTVSS VL: DIQMTQSPSSLSASVGDRVTITCKASQNVGINVAWFQQKPGKAPKSLISSASYRYSGVPSRFSGSGSGTDFTLTISSLQPEDFATYYCQQYDTYPFTFGQGTKVEIK	–	binds
Version 2 huBHA10 (antibody, human IgG1, V domains shown, also called huBHA10 Version 2) VH: QVQLVQSGAEVKKPGSSVKVSCKASGYTFTTYYLHWVRQAPGQGLEWIGWIYPGNVHAQYNEKFKGRATITADKSTSTAYMELSSLRSEDTAVYYCARSWEGFPYWGQGTTVTVSS VL: DIQMTQSPSSLSASVGDRVTITCKASQNVGINVAWYQQKPGKAPKSLISSASYRYSGVPSRFSGSGSGTDFTLTISSLQPEDFATYFCQQYDTYPFTFGQGTKVEIKR	–	binds
